Experimental data taken from paper PMC11746992 (Nature Communications, 2025).

B1: C7H13 (chimeric antibody: variable regions of 7H13 in a human antibody framework) (antibody, V domains shown)
VH: QVQLKESGPGLVAPSQSLSITCTVSGFSLSRYSVHWVRQPPGKGLEWLGMIWNIGSTDYNSALKSRLSISKDNSQSQVFLKLNSLQTDDAAIYYCARNSGFDLFDFWGQGTTLTVS
VL: DIVMTQSHKFMSTSVGDRVSITCKASQDVTSAVAWYQQKPGQSPKLLISSASYRYTGVPDRFSGSGSGTDFTFTISSVQAEDLAVYYCQQHYSTPPTFGAGTKLELK
B2: m41# (engineered mouse Fc version of 41#) (antibody, V domains shown)
VH: EVQLVESGGGPVQPGGSLKLSCAASGFTFSNYEMYWVRQAPGKGLEWVSYISTSPAITYYADSVRGRFTISRDNAKSSLYLHMNSLRAEDTAVYYCATISHQQFSSGWNAWFDPWGQGTLVTVSG
VL: NFMLTQPHSVSESPGKTVTISCTGSSGSIASNYVQWYRQRPGSAPTTVIYENYQRPSGVPARFSGSIDRSSNSASLTISGLQTDDEADYYCQSYDNNNLWVFGGGTKLTVL

Target: VP4 coated on microplates (indirect blocking ELISA) (Rotavirus A, simian strain SA11 …, UniProt A2T3T2)
Assay: ELISA

binding result | Binder
binds | B1
binds | B2
